Test results as given in paper PMC9536601.
pKd: −log10 of the molar value.

Assays:
[1] = target: chimeric hexon of Ad5:H1.1 (Ad5 vector, hexon residues 112-593 from Ad1 hexon), on the virion (human adenovirus type 5 | human adenovirus type 1) (UniProt P04133); assay: SPR; Biacore T200; about 300 to 5,000 RU of Ad virions immobilised on a CM5 chip, coagulation factors flowed over at four concentrations, 50 uL/min; 10 mM HEPES, 150 mM NaCl, 1 mM CaCl2, 0.5 mM MgCl2, 0.1% BSA, 0.05% polysorbate 20, pH 7.4; global fit to a 1:1 kinetic interaction model, double referencing
[2] = target: chimeric hexon of Ad5:H1.2 (Ad5 vector, hexon residues 112-593 from Ad1 hexon, HVR7 IGVTRTY), on the virion (human adenovirus type 5 | human adenovirus type 1) (UniProt P04133); assay: as above
[3] = target: chimeric hexon of Ad5:H57.1 (Ad5 vector, hexon residues 112-593 from Ad57 hexon), on the virion (human adenovirus type 5 | human adenovirus type 57) (UniProt P04133); assay: as above
[4] = target: chimeric hexon of Ad5:H6.1 (Ad5 vector, hexon residues 112-593 from Ad6 hexon), on the virion (human adenovirus type 5 | human adenovirus type 6) (UniProt P04133); assay: as above
[5] = target: hexon of Ad5.10 (Ad5 vector, hexon HVR1 replaced with the HVR1 of Ad6 hexon), on the virion (human adenovirus type 5) (UniProt P04133); assay: as above
[6] = target: chimeric hexon of the Ad5 vector Ad5:H1.1 (Ad5 hexon with residues 112-593 from Ad1 hexon, on virions) (human adenovirus 5 | human adenovirus 1) (UniProt P04133); assay: SPR; Biacore T200; about 300 to 5,000 RU of Ad virions immobilised on a CM5 chip, coagulation factors flowed over at four concentrations, 50 uL/min; running buffer 10 mM HEPES, 150 mM NaCl, 1 mM CaCl2, 0.5 mM MgCl2, 0.1% BSA, 0.05% polysorbate 20, pH 7.4; regeneration with 3 mM EDTA; global fit to a 1:1 kinetic interaction model, double referencing
[7] = target: chimeric hexon of the Ad5 vector Ad5:H1.2 (Ad1 hexon section with HVR7 mutations, on virions) (human adenovirus 5 | human adenovirus 1) (UniProt P04133); assay: as above
[8] = target: chimeric hexon of the Ad5 vector Ad5:H57.1 (Ad5 hexon with residues 112-593 from Ad57 hexon, on virions) (human adenovirus 5 | human adenovirus 57) (UniProt P04133); assay: as above
[9] = target: chimeric hexon of the Ad5 vector Ad5:H6.1 (Ad5 hexon with residues 112-593 from Ad6 hexon, on virions) (human adenovirus 5 | human adenovirus 6) (UniProt P04133); assay: as above
[10] = target: hexon of wild-type human adenovirus type 1 (on virions) (human adenovirus 1); assay: as above

Row | Substance | pKd [1] | pKd [2] | pKd [3] | pKd [4] | pKd [5] | pKd [6] | koff [6] | kon [6] | pKd [7] | koff [7] | kon [7] | pKd [8] | koff [8] | kon [8] | pKd [9] | koff [9] | kon [9] | pKd [10] | koff [10] | kon [10]
1 | bovine coagulation factor X (from UniProt P00743 41-492) (natural protein) | 6.66 | 5.96 | 7.55 | 7.01 | 6.56 | 6.66 | 0.0512 s⁻¹ | 236000 M⁻¹ s⁻¹ | 5.96 | 0.085 s⁻¹ | 77400 M⁻¹ s⁻¹ | 7.55 | 0.00342 s⁻¹ | 121000 M⁻¹ s⁻¹ | 7.01 | 0.0132 s⁻¹ | 135000 M⁻¹ s⁻¹ | 6.80 | 0.0381 s⁻¹ | 232000 M⁻¹ s⁻¹
2 | human coagulation factor X (from UniProt P00742 41-488) (natural protein) | 6.52 | 6.19 | 7.24 | 7.37 | 8.96 | 6.52 | 0.077 s⁻¹ | 253000 M⁻¹ s⁻¹ | 6.19 | 0.0631 s⁻¹ | 97200 M⁻¹ s⁻¹ | 7.24 | 0.00316 s⁻¹ | 54300 M⁻¹ s⁻¹ | 7.37 | 0.00914 s⁻¹ | 214000 M⁻¹ s⁻¹ | 6.66 | 0.0501 s⁻¹ | 232000 M⁻¹ s⁻¹
3 | mouse coagulation factor X (from UniProt O88947 41-481) (natural protein) | 9.09 | 8.30 | 9.19 | 9.51 | 9.24 | 9.09 | 0.000372 s⁻¹ | 454000 M⁻¹ s⁻¹ | 8.30 | 0.00084 s⁻¹ | 169000 M⁻¹ s⁻¹ | 9.19 | 9.23e-05 s⁻¹ | 143000 M⁻¹ s⁻¹ | 9.51 | 3.78e-05 s⁻¹ | 122000 M⁻¹ s⁻¹ | 9.51 | 7.73e-05 s⁻¹ | 253000 M⁻¹ s⁻¹
4 | mouse prothrombin (coagulation factor II) (from UniProt P19221 44-618) (natural protein) | 7.80 | 5.89 | 8.00 | 8.07 | 6.45 | 7.80 | 0.00118 s⁻¹ | 71600 M⁻¹ s⁻¹ | 5.89 | 0.0483 s⁻¹ | 36800 M⁻¹ s⁻¹ | 8.00 | 0.00031 s⁻¹ | 29800 M⁻¹ s⁻¹ | 8.07 | 0.000535 s⁻¹ | 62200 M⁻¹ s⁻¹ | 7.85 | 0.000687 s⁻¹ | 49800 M⁻¹ s⁻¹
